Assay results published in publication PMC9732821, “Neurotrophic Activity and Its Modulation by Zinc Ion of a Dimeric Peptide Mimicking the Brain-Derived Neurotrophic Factor N-Terminal Region” (ACS Chemical Neuroscience, 2022).

Key:
[1] = system: TrkB; details: synaptic cleft; cited from earlier work
Excerpt: BDNF is the predominant NT in the adult brain and is widely distributed in the cortical areas, visual cortex, and hippocampus.[3] Activation of TrkB by BDNF initiates downstream signaling cascades mediated by Ras/ERK, PI3K/Akt, and PLC-γ.[4] After its activation, the BDNF–TrkB complex undergoes endocytosis, recycling, or degradation and crucially takes the axonal transport route to sustain neuron survival and differentiation.[5] Furthermore, BDNF/TrkB signaling regulates dendritic branching, the density of spines, and spine morphological specializations, acting both as the mediator and modulat ... || The modulation of the BDNF–TrkB signaling axis has been recently postulated as a drug target for the treatment of neurological diseases, including nerve injury, neurodegenerative diseases, and neuropsychiatric disorders.[15],[16] Unfortunately, the therapeutic use of BDNF, as that of other NTs, is challenging due to the uncontrolled side effects as well as their low bioavailability.[17] To overcome such limitations, the use of peptide fragments that can mimic specific domains of the NTs has been explored in the last few years.[18] The most investigated BDNF structural elements have been so far ...

[2] = molecular target: TrkB receptor, endogenous in differentiated SH-SY5Y cells (human (endogenous in SH-SY5Y)) (UniProt Q16620); experiment: immunostaining of cells or tissue; non-permeabilizing immunofluorescence of membrane-bound BDNF on differentiated SH-SY5Y cells; 1 h treatment with BDNF 150 ng/mL, d-bdnf 10 μM, or both
[3] = molecular target: TrkB receptor, endogenous in differentiated SH-SY5Y cells (human (endogenous in SH-SY5Y)) (UniProt Q16620)

UniProt Q16620, sequence (Q16620 32-822): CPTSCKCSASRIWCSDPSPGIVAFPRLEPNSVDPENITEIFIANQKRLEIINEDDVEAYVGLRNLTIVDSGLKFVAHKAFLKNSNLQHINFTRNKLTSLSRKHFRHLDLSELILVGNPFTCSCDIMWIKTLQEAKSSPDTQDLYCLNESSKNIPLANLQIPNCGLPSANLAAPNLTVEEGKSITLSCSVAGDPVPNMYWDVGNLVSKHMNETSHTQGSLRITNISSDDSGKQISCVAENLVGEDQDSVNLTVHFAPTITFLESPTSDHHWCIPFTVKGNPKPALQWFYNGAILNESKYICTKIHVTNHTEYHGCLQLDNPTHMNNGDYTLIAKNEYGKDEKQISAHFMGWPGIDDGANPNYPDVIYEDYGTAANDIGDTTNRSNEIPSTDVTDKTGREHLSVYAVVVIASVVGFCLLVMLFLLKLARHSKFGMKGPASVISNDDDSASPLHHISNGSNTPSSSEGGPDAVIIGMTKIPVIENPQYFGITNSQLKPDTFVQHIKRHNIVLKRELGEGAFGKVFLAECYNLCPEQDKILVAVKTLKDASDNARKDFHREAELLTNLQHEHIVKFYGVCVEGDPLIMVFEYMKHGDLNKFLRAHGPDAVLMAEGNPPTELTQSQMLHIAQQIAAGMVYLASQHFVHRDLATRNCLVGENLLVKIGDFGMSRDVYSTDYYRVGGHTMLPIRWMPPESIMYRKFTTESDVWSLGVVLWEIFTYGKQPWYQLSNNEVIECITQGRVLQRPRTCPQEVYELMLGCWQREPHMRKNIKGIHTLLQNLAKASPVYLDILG

Molecule	TrkB activation [1]	increase of the fluorescent signal of membrane-bound BDNF on the cells [2] [%]	EC50 of ERK phosphorylation, dose-response in differentiated SH-SY5Y cells (referred to the monomer form) [3] [nM]	maximal effect (Emax) of ERK phosphorylation, dose-response in differentiated SH-SY5Y cells [3]
[Zn+2] [zinc]	prompt post-synaptic, BDNF-independent TrkB activation			
recombinant human mature BDNF (hBDNF) (ligand)		40	0.69	237
